Assay results taken from US10280205B2, “Method for treating cancer with an activated T lymphocyte that selectively recognizes a cancer cell consisting of specific peptide” (immatics biotechnologies GmbH, priority 2015, dated 2019).

These substances were tested against HLA-A*02:01 (Homo sapiens, UniProt P04439, D140Y/D185E/D98H/E176V/E277Q/G131W/G231S/I119V/I121R/I166T/I218V/L300P/L318F/N151K/N90K/P208A/P217A/Q86G/Q94H/R138H/R169H/T345S) (assay: MHC binding assay: UV-ligand exchange with beta2m ELISA (exchange yield)). Conditions: binding to HLA-A*02:01, β2m ELISA.
Method in brief: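 Exchange yield reflects how much β2m remains bound, measured by ELISA: streptavidin capture of 100-fold diluted monomers, HRP anti-β2m at 37° C. for 1 h, TMB read at 450 nm. Monomers come from UV cleavage of a conditional HLA-A*02:01 ligand in the presence of the candidate peptide.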

Substance | Peptide exchange (MHC class I binding score, peptide exchange yield)
256 (FLPPEHTIVYI; listed as Homo sapiens) [compound 256] | “+++” (≥50 = +++)
257 (SIFSAFLSV; listed as Homo sapiens) [compound 257] | “+++” (≥50 = +++)
258 (ELAERVPAI; listed as Homo sapiens) [compound 258] | “++” (≥20% = ++)
261 (YVLEFLEEI; listed as Homo sapiens) [compound 261] | “++” (≥20% = ++)
262 (LLWGDLIWL; listed as Homo sapiens) [compound 262] | “+++” (≥50 = +++)
263 (LLVSNLDFGV; listed as Homo sapiens) [compound 263] | “+++” (≥50 = +++)
264 (SLQEQLHSV; listed as Homo sapiens) [compound 264] | “+++” (≥50 = +++)
265 (LLFGGTKTV; listed as Homo sapiens) [compound 265] | “++” (≥20% = ++)
266 (KITDTLIHL; listed as Homo sapiens) [compound 266] | “+++” (≥50 = +++)
267 (ALQDFLLSV; listed as Homo sapiens) [compound 267] | “+++” (≥50 = +++)
269 (RVLEVGALQAV; listed as Homo sapiens) [compound 269] | “++” (≥20% = ++)
270 (LLLDEEGTFSL; listed as Homo sapiens) [compound 270] | “++” (≥20% = ++)
271 (LVYPLELYPA; listed as Homo sapiens) [compound 271] | “+++” (≥50 = +++)
272 (ALGNTVPAV; listed as Homo sapiens) [compound 272] | “+++” (≥50 = +++)
273 (NLFQSVREV; listed as Homo sapiens) [compound 273] | “++” (≥20% = ++)
274 (SLLFSLFEA; listed as Homo sapiens) [compound 274] | “++” (≥20% = ++)
275 (YLVYILNEL; listed as Homo sapiens) [compound 275] | “++” (≥20% = ++)
276 (ALFTFSPLTV; listed as Homo sapiens) [compound 276] | “+++” (≥50 = +++)
277 (LLPPLESLATV; listed as Homo sapiens) [compound 277] | “++” (≥20% = ++)
278 (QLLDVVLTI; listed as Homo sapiens) [compound 278] | “++” (≥20% = ++)
279 (ALWGGTQPLL; listed as Homo sapiens) [compound 279] | “++” (≥20% = ++)
280 (VLPDPEVLEAV; listed as Homo sapiens) [compound 280] | “+++” (≥50 = +++)
281 (ILRESTEEL; listed as Homo sapiens) [compound 281] | “+++” (≥50 = +++)
282 (LLADVVPTT; listed as Homo sapiens) [compound 282] | “+++” (≥50 = +++)
284 (ILLSQTTGV; listed as Homo sapiens) [compound 284] | “+++” (≥50 = +++)
285 (QLLHVGVTV; listed as Homo sapiens) [compound 285] | “+++” (≥50 = +++)
286 (YLFPGIPEL; listed as Homo sapiens) [compound 286] | “+++” (≥50 = +++)

More lines, now with the values ahead:

Peptide exchange (MHC class I binding score, peptide exchange yield) | Substance
“+++” (≥50 = +++) | 287 (FLNEFFLNV; listed as Homo sapiens) [compound 287]
“+++” (≥50 = +++) | 288 (NLINEINGV; listed as Homo sapiens) [compound 288]
“++++” (≥75% = ++++) | 289 (VLLEIEDLQV; listed as Homo sapiens) [compound 289]
“+++” (≥50 = +++) | 295 (VLDRESPNV; listed as Homo sapiens) [compound 295]
“+++” (≥50 = +++) | 296 (FMEGAIIYV; listed as Homo sapiens) [compound 296]
“+++” (≥50 = +++) | 297 (VLADIELAQA; listed as Homo sapiens) [compound 297]
“+++” (≥50 = +++) | 298 (VMITKLVEV; listed as Homo sapiens) [compound 298]
“+++” (≥50 = +++) | 299 (YLLETSGNL; listed as Homo sapiens) [compound 299]
“+++” (≥50 = +++) | 300 (ALLGQTFSL; listed as Homo sapiens) [compound 300]
“+++” (≥50 = +++) | 301 (FLVEDLVDSL; listed as Homo sapiens) [compound 301]
“+++” (≥50 = +++) | 302 (ALLQEGEVYSA; listed as Homo sapiens) [compound 302]
“++++” (≥75% = ++++) | 303 (AILPQLFMV; listed as Homo sapiens) [compound 303]
“+++” (≥50 = +++) | 304 (MTLGQIYYL; listed as Homo sapiens) [compound 304]
“++++” (≥75% = ++++) | 305 (SIANFSEFYV; listed as Homo sapiens) [compound 305]
“+++” (≥50 = +++) | 306 (ALVNVQIPL; listed as Homo sapiens) [compound 306]
“+++” (≥50 = +++) | 307 (ALPVSLPQI; listed as Homo sapiens) [compound 307]
“+++” (≥50 = +++) | 308 (SQYSGQLHEV; listed as Homo sapiens) [compound 308]
“+++” (≥50 = +++) | 309 (GLFDGVPTTA; listed as Homo sapiens) [compound 309]
“++++” (≥75% = ++++) | 310 (FLVDTPLARA; listed as Homo sapiens) [compound 310]
“+++” (≥50 = +++) | 311 (RLYTGMHTV; listed as Homo sapiens) [compound 311]

Peptide exchange (MHC class I binding score, peptide exchange yield) | Substance
“+++” (≥50 = +++) | 312 (IISDLTIAL; listed as Homo sapiens) [compound 312]
“+++” (≥50 = +++) | 313 (VLFDDELLMV; listed as Homo sapiens) [compound 313]
“+++” (≥50 = +++) | 314 (ALIAEGIALV; listed as Homo sapiens) [compound 314]
“+++” (≥50 = +++) | 315 (YLQDVVEQA; listed as Homo sapiens) [compound 315]
“+++” (≥50 = +++) | 316 (ILLERLWYV; listed as Homo sapiens) [compound 316]
“+++” (≥50 = +++) | 317 (SLAALVVHV; listed as Homo sapiens) [compound 317]
“++” (≥20% = ++) | 318 (GLINTGVLSV; listed as Homo sapiens) [compound 318]
“++++” (≥75% = ++++) | 320 (KMFEFVEPLL; listed as Homo sapiens) [compound 320]
“++++” (≥75% = ++++) | 321 (GLFEDVTQPGILL; listed as Homo sapiens) [compound 321]
“+++” (≥50 = +++) | 322 (TLMTSLPAL; listed as Homo sapiens) [compound 322]
“+++” (≥50 = +++) | 324 (FLYDEIEAEV; listed as Homo sapiens) [compound 324]
“+++” (≥50 = +++) | 325 (FIMPATVADATAV; listed as Homo sapiens) [compound 325]
“+++” (≥50 = +++) | 326 (FLPEALDFV; listed as Homo sapiens) [compound 326]
“+++” (≥50 = +++) | 327 (GLAPFTEGISFV; listed as Homo sapiens) [compound 327]
“+++” (≥50 = +++) | 328 (ALNDQVFEI; listed as Homo sapiens) [compound 328]
“++++” (≥75% = ++++) | 329 (FLVTLNNVEV; listed as Homo sapiens) [compound 329]
“+++” (≥50 = +++) | 330 (QLALKVEGV; listed as Homo sapiens) [compound 330]
“+++” (≥50 = +++) | 331 (KVDTVWVNV; listed as Homo sapiens) [compound 331]
“+++” (≥50 = +++) | 332 (YLISELEAA; listed as Homo sapiens) [compound 332]
“++” (≥20% = ++) | 333 (FLPDANSSV; listed as Homo sapiens) [compound 333]
